What was measured:
[1] = molecular target: ATP-binding cassette transporter A1 (ABCA1), endogenous in J774 macrophages (Homo sapiens (Human)) (UniProt O95477)
[2] = molecular target: ATP-binding cassette transporter A1 (ABCA1), endogenous in J774 macrophages (Homo sapiens (Human), UniProt O95477); experiment: cell-based or functional assay

concentration giving maximal cholesterol efflux [1] | potency in mediating ABCA1-dependent cholesterol efflux against the 1/9 chimera [2] | Molecule
10 µg/mL | – | full-length recombinant apoA-I (His-tagged) (from UniProt P02647) (ligand)
– | 2 fold (against the 1/9 chimera) | Ac-PALEDLRQGLLPVLESFKVSFLSALEEYTKKLN-NH2 [9/10 peptide, aa 209-241 of apoA-I (33-mer)]
